Assay results from the DeepSol protein solubility set.

Test: soluble on expression in E. coli; label from the status in PepcDB or PDB records

| Sequence | soluble on expression in E. coli |
| --- | --- |
| MSKKIKVGIVGATGYTGVELLRLLAAHPDVEVAAVTSRSEAGTAVADYFPSLRGVYGLAFQTPDEAGLEQCDIVFFATPNGIAMKDAPRLIEQGVRVIDLSADFRIRDIPTWEHWYGMTHAAPDLVSQAVYGLSELNREAVAQARLVANPGCYPTCVSLPLVPLLRQCRLKPGMPLIADCKSGVSGAGRKGNVGSLLCEAGDNFKAYGIAGHRHLPEIRQTIAGLQDGIAEGFVFTPHLAPMIRGMHATVYLHLSDGSDPETVLRDYYRDSPFVDILPTGSAPETRSVRGANLCRISIQQAAQSDVWVVLSVIDNLVKGAAGQAVQNMNIMFGLEETHGLDAIPLLP | not soluble |
| MGSDKIHHHHHHMSLPAMDAGIYLEETAPRALIEHNNILDNSVGVYLHGSADAMVRENKIVGDATLRVNERGNGVTVWNAPGAQVVGNDISKGRDGIFSNTSTHNTYKNNRFSDLRFAVHYMYTNDSEISGNISVGNNMGYVLMFSERLKVFDNIAVGSRDQGIMLNYVNYSDIHDNIINKAGKCVFAYNANYDKLSANHFENCQIGIHFTAAIEGTSLHDNSFINNESQVKYVSTRFLDWSEGGHGNYWSDNSAFDLNGDGFGDSAYRPNGIIDQIIWRAPVSRLLMNSPAISIVKWAQAQFPAVLPGGVVDSKPLMKPYAPKIQTRYQAMKDGLLKKVETRQLEWGRAENGSLN | not soluble |
| MGSDKIHHHHHHMQINRLTLTNFRGLTNSVLDFAPGFNLVVGVNGVGKTAVLEALRILLAKALPSFAEVRGFPGIGLTKDDITIDRKQAAIEVSFTHQAHTFSLLLSDQLEVVRDAVDEQKGLKDIRDIDELASLRHGQRPERGDPRLEGTLRGQTSERPRASGQLSPTPDRALKKSKPQPIVLYFSVRRAVPSPGTPKTKAGTPYQGIFEIERGLELGKIIEWWNSKATVAREAPDSRSAKQLTTTCNALERLLPHLSDWKVEDGNFTVCKVADVGVLNDESGEFEVKQETRRLPVQFLSDGERSLIAIGIDIAYRLASLNEDSETPLDDGEGIVLIDELDLHLHPQWQRTVVELLRTAFPKLQFICTTHSLFLIQSQRMGNLIQLDRIGDEEESAEQYHNQSIEDIAEEVQGIDLPQRSKRHVELMLAASEYYRALKKAEDDPNIPIEELKEKYEALSLRYSADPLVAAALDFRWETFVFKRNHATRR | not soluble |
| MGSDKIHHHHHHMTVELKNILDLEKWEKLQESLALSTRLAIILVDYKGRPVTKHSQVQPFCQLVRHSPELSKLCEKCDARGGLEAVRTGQPFIYRCHFNIVDMAIPIIVDDQYVGAIMAGEVLLEDHQEELEQVLTMNDAFIQEFLVTHQELYQQYPVLELADLEKSATLIADLSQYIISEAIKKDYLINTYKQSLQISSRKEELEPLNMIQKDIQQTLLTAQLTPSSAYQTKNKQLQPVLDALWENKSLRLNLQELADLVHLTPTYLSRLLKEEFGIPFSQFYRQLKITWAKQLLLETDKTIAQISEDLGFVEDSYFVRIFKQETGETPLKYRKRKNRA | not soluble |
| MGSDKIHHHHHHMSTFLESLRDILSAGESIAMATIANHSGSTPRGDGAQMVIRPDGSILGTIGGGLVEARCIEAGRDLLQRPPGSALFCAFALDNTTAAEAAMVCGGHLTVIIEHAGACHDNVNGCHTGEQTGCSAGHGKGLADILLHACDRVADGLSASFGVEYVWDSPSGQDGANALDKADISGRATTRQTFRPMRAAVHTTGEDSDGQRLSGASTGLALSESGCRLDVMLVPPPRLVIFGAGHVAVPTAHFGHAVGFSVTVIDDRPDFATPERFPDAHLRIPPSFAEAFDGLHVTPDTYLVIMTRGHLHDGEILEQALKTPARYIGMIGSRRKRDALYAELQEQGLDDATLARCHCPIGLDIQAQTPEEIGISIMAELVMHRASA | not soluble |
| MSLKRILLSSDRSGSGKTLITSAIMRALSKKYKVRGFKAGPDFIDPGYHKIATGFPSINLDLWMMGKNNVKRSLAKYGKEFDIGIIEGVMGLYDGVDTLYSTYELAKVTKTPIILIINCSNIGSTVGAIVKGLKYYRSDVSIRGVIFNKIASETHYNYCRNAVEDVEVLGYVPFDKNLEIKSRHLGLVTVEDNREVQNLIRYASELVEKYVDLDKIYEMASDEDLEIDLPEDNESNGVKRKMAIAYDPAFSFYYQENLDILKNKYELEFFSPLNNEYVEDAEAIYIGGGYPELHLNELEKSTRTKKWLKNMSYAGVKIYAECGGLMYLSKNLIDENNKNHSMTGIFDIDIKTKDKLTIGYTELEAVKENFIVNKNNVVRGHEFHVSKPISVNEKEFVFKVRIGKGIINKLDGVKSNNTVASYSHLHFSNFQLRIVFEGHHHHHH | not soluble |
| MVMIISTMEPQVSNGPTSNTSNGPSSNNRNCPSPMQTGATTDDSKTNLIVNYLPQNMTQEEFRSLFGSIGEIESCKLVRDKITGQSLGYGFVNYIDPKDAEKAINTLNGLRLQTKTIKVSYARPSSASIRDANLYVSGLPKTMTQKELEQLFSQYGRIITSRILVGQVTGVSRGVGFIRFDKRIEAEEAIKGLNGQKPSGATEPITVKFANNPSQKSSQALLSQLYQSPNRRYPGPLHHQAQRFRLDNLLNMAYGVKRFSPITIDGMTSLVGMNIPGHTGTGWCIFVYNLSPDSDESVLWQLFGPFGAVNNVKVIRDFNTNKCKGFGFVTMTNYDEAAMAITSLNGYRLGDRVLQVSFKTNKAHKS | soluble |
| VADFRYNVGLNLSAVKNKAVKFSGDGPIQTGGFNSDQIIRNEDGGLISRFYGYVADGIFQNWDEVYAHTNENGKLVQSNAQPGDIRFKDLNHDGVLDENDKTWIGNPYPDLMVGLNLGFSYKNIDFTANFYGTFGNDIFNKTKGLYSGVSGQNVWTGTLQKAWHGEGTSNDIPRLSYNDLNQNYTRVSSFFVEDGSYMRCKLLQVGYTLPKKWLNGTELRLSLSAQNPFTITSYSGMDPERPQIGKDGSVIETGIDGIAYPNPRTFLFGIDLKF | not soluble |
| ELKPTAPPIFTGRPFVVAWDVPTQDCGPRLKVPLDLNAFDVQASPNEGFVNQNITIFYRDRLGLYPRFDSAGRSVHGGVPQNVSLWAHRKMLQKRVEHYIRTQESAGLAVIDWEDWRPVWVRNWQDKDVYRRLSRQLVASRHPDWPPDRIVKQAQYEFEFAAQQFMLETLRYVKAVRPRHLWGFYLFPDCYNHDYVQNWESYTGRCPDVEVARNDQLAWLWAESTALFPSVYLDETLASSRHGRNFVSFRVQEALRVARTHHANHALPVYVFTRPTYSRRLTGLSEMDLISTIGESAALGAAGVILWGDAGYTTSTETCQYLKDYLTRLLVPYVVNVSWATQYCSRAQCHGHGRCVRRNPSASTFLHLSTNSFRLVPGHAPGEPQLRPVGELSWADIDHLQTHFRCQCYLGWSGEQCQWDHRQAAGG | soluble |
| MGSDKIHHHHHHMTKVKLNFNKPSNVFNRNIFEILTNYDNFTEVHYGGGSSGKSHGVIQKVVLKALQDWKYPRRILWLRKVQSTIKDSLFEDVKDCLINFGIWDMCLWNKTDNKVELPNGAVFLFKGLDNPEKIKSIKGISDIVMEEASEFTLNDYTQLTLRLRERKHVNKQIFLMFNPVSKLNWVYKYFFEHGEPMENVMIRQSSYRDNKFLDEMTRQNLELLANRNPAYYKIYALGEFATLDKMVFPKYEKRLINKDELRHLPSYFGLDFGYVNDPSAFIHSKIDVKKKKLYIIEEYVKQGMLNDEIANVIKQLGYAKEEITADSAEQKSIAELRNLGLKRILPTKKGKGSVVQGLQFLMQFEIIVDERCFKTIEEFDNYTWQKDKDTGEYTNEPVDTYNHCIDSLRYSVERFYRPVRKRTNVSSKVDTIKSLGL | not soluble |
| MEPRVTQRKRPLDGCMGKITGITSDILKYDHKCFKLSLPAKFPEVCGSDEVFPDPDLLHVLPVAGSLQQSIDQCCLQLESLCRPGLLCAHPTLLFKLHSSMKNRPFFSLIYTYVKKTQQVRKRDRKPRGQVAAGPNPTSVMLEHHHHHH | soluble |
| MAWTFDEKSPIYLQIAYRVKLKIASKELSMGQQLLPVREFAQEAGVNPNTVQRAFQELEKEGLVYSARTSGRFVTEDEKLIDQKRHEIAQTLMKNFVTEMTAIGFSSPEIKTIITDYIEQTGKDL | not soluble |
| LSSLLKAANLARSTYYYQMATGQAEDRHGALKERIQHIYAQHKGRYGYRRITATLRRAGTLVNHKTVQRLMSALQLKSLVRPKKYRSYLGQVGRVAPNLLQREFEASKPNEKWVTDVTEFNVGGKKLYLSPVLDLYNGEIVAWQTSERPDYTLIREMLDKALRKLRPCETPMLHSDQGWPYQMAAYRRKLAARGLRQSMSRKGNCLDNAAMESFFGTLKSECFRLERFADIDQLRRAIAEYIRYYNHERIKIKLKGLSPVQYRTQPLAA | soluble |
| MSLQEIIGASLVFLCNEKCEVLEDYGVVFDEKIVEIGDYQSLTLKYPHLKAQFFENSVLLPAFINAHTHFEFSNNKASFDYGSFSGWLGSVLNNGGAILENCQGAIQNAISTQLKSGVGSVGAISNHLIEVNLLKESPLNAVVFLEFLGSSYSLEKLKAFEAKFKELKDLEDKKLKAALAVHAPYSVQKDMALSVIQLAKDSQSLLSTHFLESLEELEWVENSKGWFENFYQHFLKESHFKSLYKGANDYIDMFKDTHTLFVHNQFASLEALKRIKSQVKNAFLITCPFSNRLLSGQALDLERTKEAGLSVSVATDGLSSNISLSLLDELRAFLLTHNMPLLELAKIALLGATRHGAKALALNNGEIEANKRADLSVFGFNEKFTKEQAILQFLLHAKEVECLFLGGKRVIEGHHHHHH | soluble |
| MAHHHHHHMTTAGQSDAFTRVSLHSVTALGKCPAPFSDPIAVKVVLEVFGCPPKHSIDVKFTWKPIWDFPVDQVLDEFEVGPLATVGKHELVLHSDPPDVAKIPDPTGPTALTIAFTYRGKQFLHIGYNAVVLCEGEMPDVFEDAAMLSRQLTQCFKKETTIAWDEDHEDVEEKTVINGKDNDISDVKEKDHNGHAAYDDEAKVPEGVSPTKKKARCEGSLSQ | soluble |
| MRDIGGSMSSASTSATIVKRSPPNDTSTSSGVSCDVSPNSMTSPSSGSDQNQNNNSLNKCKCCPYGYHIDLGFVSYAQNVSNGFVSRQGTPTNMTLRGNGADRHLMSPLLDNSIFSDSLDNLMSDFDDVLAPHKEVEKKKTVQDIRSRMQGGYNSDYTTYRRGPPEIPRRAHFEQAKPPPLSRPINLGFSGSRSNTPTQRFNAPNGTGNGYSTALAKTISEIRARNAESPFPDSRVGTPIDLGLHQQNNGHVTPSRFANNRYDDLPPTPTPTFRRAPSQGDLPRGFSTAPSTGPGDFASLRRGREFALPPEQEHHSRRFFSASPKLPRRGLQAGPSIDVESHFTYAQTQNGQKVLARTQSTSTSPPPQAPASAFEPVKPLSNGSPSPTHQVQKPIVTRSIAVSTGPLPAPKPCGECAGLRKELFLAVEKIPPPPPESCHVSTSTVLLEFADQSVGSEPIKHCHVALGTEPTSTREVGTVPVTVRSLHIDTQTDPAASTVDAACSPVLFETQEEAVKVTVAASSSAAAADCEECLKRQDVFTRNVGVGACSISDKICVSCDNQVVEADENEAPGFKTDTKDDQKQRDFEIAKANAVKKLLTNEQKSNFQRGTAVSKSARYDRKRSVDDLDYIVDKKNATSPATSSQEAPPTVPDASESPLTTKVVLKKEVFIEPPKQMLPDPIPARIPRPKISKWAVTSEEEAAETPDEQEEAQDRLTPLRSDMRQLGNRWNRNQVTTASNTTPHLPYSGATSQEDVSDSDAESDCSAHSDATFEVNDDVFDAAPFEVSDRLREALENFNSSILEPGSVAEETVEWSAKLVRHVWMTTAGNSSSRYENVDRFVAELGNLGPQILHMVVNFCDQNGNTALHYAVSHANFAVVSSILDSGECDLDAPNRAGYTAVMLAALSQLDDDMEKAVVHRLFQMGNVNAKASQHGQTALMLAVSHGKKTTTELLLACGANVNEQDQDGSTALMCAAEHGHKELVKMLLAENLVNASLTDVDNSTALSIALENDHREIGVMIYAYLNYGRLDISGPTSTI | not soluble |
